Measured values as given in patent US20220380475A1 (SORRISO PHARMACEUTICALS, published 2022).

Key:
[1] = molecular target: T1, recombinant soluble human IL-6R (human, UniProt P08887 20-365); experiment: standard gp130 ELISA (competition); column 'Potency'
T1 construct: also called sIL-6R; shIL-6R
T1 sequence: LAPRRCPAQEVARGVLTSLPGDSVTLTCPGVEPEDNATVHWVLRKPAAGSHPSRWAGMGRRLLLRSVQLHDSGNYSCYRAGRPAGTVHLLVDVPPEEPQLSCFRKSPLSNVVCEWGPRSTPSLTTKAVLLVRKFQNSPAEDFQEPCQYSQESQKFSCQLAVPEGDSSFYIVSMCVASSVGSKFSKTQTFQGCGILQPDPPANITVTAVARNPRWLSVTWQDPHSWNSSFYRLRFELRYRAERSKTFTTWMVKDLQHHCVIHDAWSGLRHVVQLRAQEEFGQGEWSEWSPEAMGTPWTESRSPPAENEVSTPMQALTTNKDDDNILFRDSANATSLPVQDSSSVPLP

[2] = molecular target: T1, recombinant soluble human IL-6R; experiment: gp130 ELISA (competition): inhibition of human sIL-6R/IL-6 complex binding to coated gp130; 20 ng/mL IL6R, 100 ng/mL IL6
Procedure: Briefly, Maxisorp 96-well plates were coated overnight with 50 μl/well 0.5 μg/ml gp130 then blocked. ICVDs were serially diluted and mixed 1:1 with 100 ng/ml recombinant human IL-6 then 1:1 with 40 ng/ml recombinant human sIL-6R, and incubated for 1 hour to allow binding before adding to the gp130-coated plates. Bound IL-6R was detected with 50 μl/well 0.250 μg/ml BAF227 and then 50 μl/well 1/1000 diluted Extravidin-HRP and the level of neutralisation by the ICVD of IL-6R binding to IL-6/gp130 was determined.
Dose response curves were obtained (dose response curves of particular ICVDs illustrated in FIG. 1). […] This was confirmed with curve-fitting software (Graphpad Prism), which fitted 4 parameter curves to the data and calculated the IC50s (Table 4.1, below).

[3] = molecular target: T2, cynomolgus monkey soluble IL-6R (from cynomolgus monkey serum) (cynomolgus monkey, UniProt P08887 20-365 (human entry)); experiment: anti-cynomolgus IL-6R gp130 ELISA (competition): 10x diluted cynomolgus serum, 50 ng/mL human IL-6, coated human gp130
T2 construct: Natural soluble IL-6R present in diluted normal cynomolgus monkey serum; also called cyno IL6R; cynomolgous sIL-6R
T2 chain: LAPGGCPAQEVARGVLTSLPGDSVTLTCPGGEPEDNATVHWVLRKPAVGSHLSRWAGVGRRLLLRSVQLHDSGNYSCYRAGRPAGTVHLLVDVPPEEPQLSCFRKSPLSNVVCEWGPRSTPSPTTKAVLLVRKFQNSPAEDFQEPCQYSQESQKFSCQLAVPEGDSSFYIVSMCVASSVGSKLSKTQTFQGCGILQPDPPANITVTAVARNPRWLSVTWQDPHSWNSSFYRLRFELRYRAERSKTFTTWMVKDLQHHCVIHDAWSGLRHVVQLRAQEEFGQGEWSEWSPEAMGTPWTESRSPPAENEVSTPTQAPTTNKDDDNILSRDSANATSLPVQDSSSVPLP
Procedure: (§1) The standard anti-cynomolgus monkey IL-6R gp130 ELISA assay detailed under ‘Potency, neutralisation and inhibition’ above was performed to assay the ICVDs in parallel for their ability to neutralise sIL6R in cynomolgous monkey serum and recombinant purified human sIL6R. Briefly, Maxisorp 96-well plates were coated overnight with 50 μl/well 1 μg/ml gp130 then blocked. ICVDs were serially diluted and mixed 1:1 with 200 ng/ml recombinant human IL-6, then 1:1 with either 20 ng/ml recombinant human sIL-6R or a 5-fold dilution of cynomolgus monkey serum and incubated for 1 hour to allow binding before adding to the gp130-coated plates. Bound cynomolgus monkey IL-6R was detected with 50 μl/well either 0.25 μg/ml (for human IL-6R) or 0.5 μg/ml (for monkey serum) BAF227 and then 50 μl/well 1/1000 Extravidin-HRP and the level of neutralisation by the ICVD of IL-6R binding to IL-6/gp130 was determined

[4] = molecular target: T2, cynomolgus monkey soluble IL-6R (from …); experiment: ratio of gp130 ELISA IC50s on human and cynomolgus sIL-6R
Procedure: as §1

[5] = molecular target: T1, recombinant soluble human IL-6R; experiment: gp130 ELISA (competition), parallel human arm: 10 ng/mL human IL-6R, 50 ng/mL human IL-6
Procedure: as §1

[6] = molecular target: T3, membrane-bound human IL-6R on TF-1 cells (human, UniProt P08887 20-468); experiment: cell-based or functional assay
T3 sequence: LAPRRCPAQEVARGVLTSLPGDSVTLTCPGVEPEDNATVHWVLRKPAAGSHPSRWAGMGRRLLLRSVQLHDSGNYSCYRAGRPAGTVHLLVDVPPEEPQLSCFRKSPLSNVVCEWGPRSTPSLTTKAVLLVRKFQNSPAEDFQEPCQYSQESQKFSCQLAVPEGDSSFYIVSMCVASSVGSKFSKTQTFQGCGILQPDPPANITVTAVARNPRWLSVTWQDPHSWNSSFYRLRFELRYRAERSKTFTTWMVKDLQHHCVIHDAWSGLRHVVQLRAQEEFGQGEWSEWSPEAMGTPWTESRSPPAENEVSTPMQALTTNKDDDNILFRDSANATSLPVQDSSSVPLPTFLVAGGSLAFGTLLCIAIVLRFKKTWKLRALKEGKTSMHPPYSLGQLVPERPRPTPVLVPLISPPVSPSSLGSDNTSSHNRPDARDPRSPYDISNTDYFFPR

[7] = molecular target: T3, membrane-bound human IL-6R on TF-1 cells; experiment: cell-based or functional assay; remark: listed apart in the source
[8] = molecular target: T1, recombinant soluble human IL-6R; experiment: standard gp130 ELISA (competition); 10 ng/mL IL-6R, 50 ng/mL IL-6; column 'Potency'
Procedure: Mutant 5G9 sequences were produced and tested for their potency in the standard gp130 ELISA. The standard gp130 ELISA has a final assay concentration of 10 ng/mL IL-6R and 50 ng/mL IL-6.

[9] = molecular target: T1, recombinant soluble human IL-6R; experiment: cell-based or functional assay
[10] = molecular target: T1, recombinant soluble human IL-6R; experiment: standard gp130 ELISA (competition), Experiment 2; 10 ng/mL IL-6R, 50 ng/mL IL-6
Procedure: The inhibitory potency and efficacy (maximal inhibition) of the E. coli-produced 5G9 derivatives were confirmed in vitro in the gp130 ELISA, TF-1 cell and M1 cell functional assays measuring responses mediated via human IL-6R. The gp130 assays follow the standard protocol with a final assay concentration of 10 ng/mL IL-6R and 50 ng/mL IL-6.

B1: ID-3V (VHH)
VHH: EVQLVESGGGLVQAGGSTRLTCLASGSISSINVIGWYRQAPGKQRELVAMIGRGEGANYGDFAKGRFTISRDNSKNTVYLQMNSLKPEDTAVYYCYADYEDHDSPFNGSWGQGTQVTVSS
notes: Mutant of 7F6; also called 7F6 + R102H; not shown: C-terminal Flag- and His-tags of E. coli constructs
IC50 [1]: 160 pM

B2: ID-49V (VHH)
VHH: EVQLVESGGGLVQAGGSTRLTCLASGSISSINVIGWYRQAPGKQRELVAMIGRGEGANYGDFAKGRFTISRDNSKNTVYLQMNSLKPEDTAVYYCYADYEDRDSPTNGSWGQGTQVTVSS
notes: Mutant of 7F6; also called 7F6 + F106T; not shown: C-terminal Flag- and His-tags of E. coli constructs
IC50 [1]: 310 pM

B3: ID-6V (VHH)
VHH: EVQLVESGGGLVQAGGSTRLTCLASGSISSINVIGWYRQAPGKQRELVAMIGRGEGANYGDFAKGRFTISRDNSKNTVYLQMNSLKPEDTAVYYCYADYEDRDSPHNGSWGQGTQVTVSS
notes: Mutant of 7F6; also called 7F6 + F106H; not shown: C-terminal Flag- and His-tags of E. coli constructs
IC50 [1]: 220 pM

B4: ID-40V (VHH)
VHH: EVQLVESGGGLVQAGGSTRLTCLASGSISSINVIGWYRQAPGKQRELVAMIGRGEGANYGDFAKGRFTISRDNSKNTVYLQMNSLKPEDTAVYYCYADYEDHDSPHNGSWGQGTQVTVSS
notes: Mutant of 7F6; also called 7F6 + R102H, F106H; not shown: C-terminal Flag- and His-tags of E. coli constructs
IC50 [1]: 210 pM

B5: ID-47V (VHH)
VHH: EVQLVESGGGLVQAGGSTRLTCLASGSISSINVIGWYRQAPGKQRELVAMIGRGEGANYGDFAKGRFTISRDNSKNTVYLQMNSLKPEDTAVYYCYADYEDRDSPINGSWGQGTQVTVSS
notes: Mutant of 7F6; also called 7F6 + F106I; not shown: C-terminal Flag- and His-tags of E. coli constructs
IC50 [1]: 270 pM

B6: ID-50V (VHH)
VHH: EVQLVESGGGLVQAGGSTRLTCLASGSISSINVIGWYRQAPGKQRELVAMIGRGEGANYGDFAKGRFTISRDNSKNTVYLQMNSLKPEDTAVYYCYADYEDRDSPVNGSWGQGTQVTVSS
notes: Mutant of 7F6; also called 7F6 + F106V; not shown: C-terminal Flag- and His-tags of E. coli constructs
IC50 [1]: 240 pM

B7: 3C12 (VHH)
VHH: EVQLVESGGGLAQLGGSLRLSCVASGNIFSSNTAGWFRQAPGKQREWVAGISIGGMPAYADSVKGRFTISRDNAKNTVYLQMNSLKPEDTAVYYCATGGTEYDYWGQGTQVTVSS
notes: Llama ICVD from library 37-3, produced in E. coli; also called VIL-3C12; not shown: C-terminal Flag and 6xHis tags from vector pMEK222
IC50 [2]: 1890 pM
IC50 [3]: 4140 pM
Ratio Cyno IC50/human IC50 (title: human IC50 divided by cynomolgous IC50) [4]: 0.9
IC50 [5]: 3530 pM
IC50 of inhibition of IL-6-induced TF-1 cell proliferation [6]: 44600 pM

B8: 5G9 (VHH)
VHH: EVQLVESGGGLVQAGGSTRLTCKASGSIFNINSINVMAWYRQAPGKQRELVAIIGKGGGTNYADFVKGRFTISRDAAKNTVNLQMNSLKPEDTAVYYCYADYEDRDSPFNASWGQGTQVTVSS
notes: also called VIL-5G9; 'Wild type' 5G9; not shown: C-terminal Flag and 6xHis tags from vector pMEK222
Potency in the TF-1 assay [7]: 0.23 not printed (nM in the filing's other TF-1 tables)
IC50 [2]: 160 pM
IC50 [3]: 804 pM
Ratio Cyno IC50/human IC50 (title: human IC50 divided by cynomolgous IC50) [4]: 0.2
IC50 [5]: 148 pM
IC50 of inhibition of IL-6-induced TF-1 cell proliferation [6]: 900 pM
IC50 [8]: 90 pM

B9: ID-52V (VHH)
VHH: EVQLVESGGGLVQAGGSTRLTCKASGSIFNINSINVMAWYRQAPGKQRELVAIIGKGGGTNYADFVKGRFTISRDAAKNTVNLQMNSLKPEDTAVYYCYADYEDHDSPHNASWGQGTQVTVSS
notes: Mutant of 5G9; also called 5G9 + F109H, R105H; not shown: C-terminal Flag- and His-tags of E. coli constructs
IC50 [8]: 240 pM

B10: ID-59V (VHH)
VHH: EVQLVESGGGLVQAGGSTRLTCKASGSIFNINSINVMAWYRQAPGKQRELVAIIGKGGGTNDADFVKGRFTISRDAAKNTVNLQMNSLKPEDTAVYYCYADYEDRDSPFNASWGQGTQVTVSS
notes: Mutant of 5G9; also called 5G9 + Y62D; not shown: C-terminal Flag- and His-tags of E. coli constructs
IC50 [8]: 110 pM

B11: ID-54V (VHH)
VHH: EVQLVESGGGLVQAGGSTRLTCKASGSIFNINSINVMAWYRQAPGKQRELVAIIGKGGGTNYADFVKGRFTISRDAAKNTVNLQMNSLKPEDTAVYYCYADYEDHDSPFNASWGQGTQVTVSS
notes: Mutant of 5G9; also called 5G9 + R105H; not shown: C-terminal Flag- and His-tags of E. coli constructs
Potency in the TF-1 assay [7]: 0.31 not printed (nM in the filing's other TF-1 tables)
IC50 [8]: 150 pM

B12: ID-56V (VHH)
VHH: EVQLVESGGGLVQAGGSTRLTCKASGSISNINSINVMAWYRQAPGKQRELVAIIGKGGGTNYADFVKGRFTISRDAAKNTVNLQMNSLKPEDTAVYYCYADYEDRDSPFNASWGQGTQVTVSS
notes: Mutant of 5G9; also called 5G9 + F29S; not shown: C-terminal Flag- and His-tags of E. coli constructs
IC50 [8]: 70 pM

B13: ID-53V (VHH)
VHH: EVQLVESGGGLVQAGGSTRLTCKASGSIFNINSINVMAWYRQAPGKQRELVAIIGKGGGTNYADFVKGRFTISRDAAKNTVNLQMNSLKPEDTAVYYCYADYEDRDSPHNASWGQGTQVTVSS
notes: Mutant of 5G9; also called 5G9 + F109H; not shown: C-terminal Flag- and His-tags of E. coli constructs
Potency in the TF-1 assay [7]: 17.5 not printed (nM in the filing's other TF-1 tables)
IC50 [8]: 300 pM

B14: ID-55V (VHH)
VHH: EVQLVESGGGLVQAGGSTRLTCHASGSIFNINSINVMAWYRQAPGKQRELVAIIGKGGGTNYADFVKGRFTISRDAAKNTVNLQMNSLKPEDTAVYYCYADYEDRDSPFNASWGQGTQVTVSS
notes: Mutant of 5G9; also called 5G9 + K23H; not shown: C-terminal Flag- and His-tags of E. coli constructs
IC50 [8]: 110 pM

B15: ID-122V (VHH)
VHH: EVQLVESGGGLVQAGGSTRLTCKASGSISNINSINVMAWYRQAPGKGRELVAIIGKGGGTNYADFVKGRFTISRDAAKNTVNLQMNSLRPEDTAVYYCYADYEDHDSPHNASWGQGTQVTVSS
notes: E. coli-produced trans-selective 5G9 derivative; also called 5G9 + F29S, Q47G, K89R, R105H, F109H; not shown: C-terminal FLAG-6xHis
M1 cellular assay EC50 (20 ng/ml IL-6R, 100 ng/ml IL-6) [9]: 3960 pM
EC50 [10]: 489 pM

B16: 4D3 (VHH)
VHH: EVQLVESGGGSVQAGESLTLSCVASISTFSQNAMGWFRQAAGKRRESVARISSSGNVGYTDAVKGRFTMSRDNAKKTVYLQMNSLKPEDTAVYYCNAYSMSGELAAPWGQGTQVTVSS
notes: Llama ICVD from library 46-3, produced in E. coli; also called VIL-4D3; not shown: C-terminal Flag and 6xHis tags from vector pMEK222
IC50 [2]: 660 pM
IC50 [3]: 372 pM
Ratio Cyno IC50/human IC50 (title: human IC50 divided by cynomolgous IC50) [4]: 1.9
IC50 [5]: 691 pM
IC50 of inhibition of IL-6-induced TF-1 cell proliferation [6]: 26000 pM
